The series concerns the molecule itself. Put plainly: SEC.

B1: Bacillus subtilis Zur C84S (natural protein)
chain: not shown
A word on the stoichiometry N: it is a count of units in the complex or per binding partner. For B1, the “stoichiometry N” value was 2.

B2: Bacillus subtilis Zur H89A (natural protein)
chain: not shown
On to B2, for which the binding result is “binds”.

B3: Bacillus subtilis Zur H90A (natural protein)
chain: not shown
With B3, the binding result is reported as “binds”.

Source of the values: PMC3241647 (Nucleic Acids Research, 2011).
